Results from FireProtDB (doi:10.1016/j.jmb.2005.09.091).

B1: Guanyl-specific ribonuclease Sa, P05798 (parent)
chain: DVSGTVCLSALPPEATDTLNLIASDGPFPYSQDGVVFQNRESVLPTQSYGYYHEYTVITPGARTRGTRRIITGEATQEDYYTGDHYATFSLIDQTC

Variants of: B1
Settings: Kitasatospora aureofaciens, Thermal, structure 1RGG, whole UniProt chain shown
[1] = pH 3, 38.6 °C, CD, Glycine 30 mM
[2] = pH 8.5, 45.9 °C, CD, Mops 30 mM

Variant | ddG of mutation (higher = less stable) (pH 7, 52.6 °C, CD, Mops 30 mM) [kcal/mol] | heat capacity change of unfolding (pH 7, 52.6 °C, CD, Mops 30 mM) [kcal/mol/K] | ddG of mutation (higher = less stable) (pH 7, 52.6 °C, DSC, Mops 30 mM) [kcal/mol] | heat capacity change of unfolding (pH 7, 52.6 °C, DSC, Mops 30 mM) [kcal/mol/K] | Tm (pH 7, CD, Mops 30 mM) [°C] | change of melting temperature, mutant - wild type (higher = more stable) (pH 7, CD, Mops 30 mM) [°C] | unfolding enthalpy (van 't Hoff) (pH 7, CD, Mops 30 mM) [kcal/mol] | ddG of mutation (higher = less stable) [1] [kcal/mol] | heat capacity change of unfolding [1] [kcal/mol/K] | Tm (pH 3, CD, Glycine 30 mM) [°C] | change of melting temperature, mutant - wild type (higher = more stable) (pH 3, CD, Glycine 30 mM) [°C] | unfolding enthalpy (van 't Hoff) (pH 3, CD, Glycine 30 mM) [kcal/mol] | ddG of mutation (higher = less stable) [2] [kcal/mol] | heat capacity change of unfolding [2] [kcal/mol/K] | Tm (pH 8.5, CD, Mops 30 mM) [°C] | change of melting temperature, mutant - wild type (higher = more stable) (pH 8.5, CD, Mops 30 mM) [°C] | unfolding enthalpy (van 't Hoff) (pH 8.5, CD, Mops 30 mM) [kcal/mol]
D79I | -2.9 | 1.52 | -2.8 | 1.52 | 57.4 | 9.6 | 89 | – | – | – | – | – | – | – | – | – | –
D79Y | -2.9 | 1.52 | – | – | 57.4 | 9.6 | 84 | – | – | – | – | – | – | – | – | – | –
D79F | – | – | -3 | 1.52 | 57.8 | 10 | 89 | 0.3 | 1.52 | 38.5 | -1.4 | 67 | -3.7 | 1.52 | 51.8 | 13.1 | 82
D79R | -2.7 | 1.52 | -2.7 | 1.52 | 56.8 | 9 | 92 | – | – | – | – | – | – | – | – | – | –
D79W | -2.3 | 1.52 | -2.3 | 1.52 | 55.4 | 7.6 | 88 | – | – | – | – | – | – | – | – | – | –
D79H | -1.8 | 1.52 | -1.8 | 1.52 | – | – | – | – | – | – | – | – | – | – | – | – | –
D79N | -1.8 | 1.52 | -1.8 | 1.52 | 53.4 | 5.5 | 96 | 1.2 | 1.52 | 35.1 | -4.8 | 69 | -2.3 | 1.52 | 46.3 | 7.6 | 65
D79K | -2.3 | 1.52 | -2.3 | 1.52 | 55.4 | 7.6 | 88 | – | – | – | – | – | – | – | – | – | –
D79E | 0.3 | 1.52 | 0.3 | 1.52 | 47 | -0.8 | 90 | – | – | – | – | – | – | – | – | – | –
D79L | – | – | -2.7 | 1.52 | 56.6 | 8.7 | 75 | – | – | – | – | – | – | – | – | – | –
D79A | -2.8 | 1.52 | -2.7 | 1.52 | 57 | 9.2 | 94 | 0.3 | 1.52 | 38.6 | -1.3 | 75 | – | – | 50.4 | 11.7 | 95
Q94K | -0.3 | 1.52 | – | – | 48.6 | 0.8 | 96 | -0.2 | 1.52 | 40.8 | 0.9 | 64 | -1.1 | 1.52 | – | – | –
D33A | 6.2 | 1.52 | 6 | 1.52 | 31.8 | -16 | 57 | – | – | – | – | – | – | – | – | – | –
